B1: Monoclonal antibody 24F12.B1 (antibody, mouse IgG1, V domains shown)
VH: SGGGLVRPGGSLKLSCAASGFTFSSYAMSWVRQSPEKRLEWVAEIGSGGSYTYYPDTVTGRFTISRDNAKSTLYLEMSSLRSEDTAIYYCARETTAGYFDYWGQGTTLTVSS
VL: TSSLSASLGDRVTISCSASQGINNFLNWYQQKPDGTVKLLIYYTSSLHSGVPSRFSGSGSGTDYSLTISNLEPEDIAIYYCQHFSKLPWTFGGGTKLEIKR
B2: Monoclonal antibody 26B3.F2 (antibody, mouse IgG1, V domains shown)
VH: GPELVKPGASVKISCKASDYSFTGYFMNWVMQSHGKSLEWIGRIFPYNGDTFYNQKFKGRATLTVDKSSSTAHMELRSLASEDSAVYFCARGTHYFDYWGQGTTLTVSS
VL: PASLSASVGETVTITCRTSENIFSYLAWYQQKQGISPQLLVYNAKTLAEGVPSRFSGSGSGTQFSLKINSLQPEDFGSYYCQHHYAFPWTFGGGSKLEIKR
B3: Monoclonal antibody 9F3.H9.H3.H3.B5.G2 (antibody, mouse IgG2a, V domains shown)
VH: ESGPGLVRPSQSLSLTCSVTGYSITSGYYWNWIRQFPGSRLEWMGYIKSDGSNNYNPSLKNRISITRDTSKNQFFLKLNSVTTEDTATYFCTREWKAMDYWGQGTSVTVSS
VL: PAIMSASPGEKVTMTCRASSTVSYSYLHWYQQKSGASPQLWIYGTSNLASGVPARFSGSGSGTSYSLTISSVEAEDAATYYCQQYSGYPLTFGAGTKLELKR

Legend:
[1] = molecular target: human folate receptor delta (FRΔ) expressed on CHO cells (human) (UniProt A6ND01); assay: flow cytometry on cells expressing FRΔ, antibody 1 µg/mL (parental CHOK1: 5.9)
Chain of human folate receptor delta (FRΔ) expressed on CHO cells (human) (A6ND01 20-228, stated change not applied): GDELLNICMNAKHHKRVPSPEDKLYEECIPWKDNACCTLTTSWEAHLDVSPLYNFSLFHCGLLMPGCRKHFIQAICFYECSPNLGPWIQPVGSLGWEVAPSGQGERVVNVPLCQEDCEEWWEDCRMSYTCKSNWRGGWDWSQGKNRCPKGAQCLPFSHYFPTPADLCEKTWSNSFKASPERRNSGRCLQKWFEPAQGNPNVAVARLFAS

[2] = molecular target: human folate receptor delta (FRΔ) expressed on CHO cells (human) (UniProt A6ND01); assay: flow cytometry on cells expressing FRΔ, antibody 1 µg/mL (parental CHOK1: 5.7)

Binder	Geometric Mean [1]	Geometric Mean [2]
B1	5.9	–
B2	–	5.4
B3	5.6	–
